Measured values taken from PMC3188589, “Structural and Biochemical Studies of Human 4-hydroxy-2-oxoglutarate Aldolase: Implications for Hydroxyproline Metabolism in Primary Hyperoxaluria” (PLoS ONE, 2011).
Several values for one entry are separate records, joined by “and”; a condition that tells them apart may be missing. Equal values may be shown once.

Columns and labels:
bovine HOGA (bHOGA) = molecular target: T1, bovine HOGA (bHOGA) (Bos taurus, UniProt Q0P5I5); assay: phenylhydrazine assay of glyoxylate formation; assay type: biochemical; settings: racemic HOG; native enzyme from kidney mitochondria
T1 construct: gene HOGA1; native mature enzyme purified from kidney cortex mitochondria, begins at residue 26, 35,217 Da printed, no tag
T1 sequence (Q0P5I5 26-327): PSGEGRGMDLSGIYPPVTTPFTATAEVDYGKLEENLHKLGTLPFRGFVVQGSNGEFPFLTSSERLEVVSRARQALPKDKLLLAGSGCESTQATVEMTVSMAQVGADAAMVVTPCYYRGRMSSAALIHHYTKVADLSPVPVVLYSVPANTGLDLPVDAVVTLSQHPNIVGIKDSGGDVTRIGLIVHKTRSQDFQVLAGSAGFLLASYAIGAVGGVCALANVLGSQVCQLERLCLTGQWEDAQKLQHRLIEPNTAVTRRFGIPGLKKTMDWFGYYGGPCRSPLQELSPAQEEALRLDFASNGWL

human HOGA (hHOGA) = molecular target: T2, human HOGA (hHOGA) (Homo sapiens, UniProt Q86XE5); assay: X-ray crystal structure, […] Å; assay type: binding; settings: covalent Schiff base with Lys196; 10 mM sodium pyruvate in crystallization, pH 7.5, 20°C
T2 construct: gene HOGA1; His-tag (WT, Y140F) cleavable by PreScission leaving GPH, 33,097 Da tag-free; S77, N78 and S198 mutants as MBP fusion, MBP cleaved; tetramer
T2 sequence (Q86XE5 26-327): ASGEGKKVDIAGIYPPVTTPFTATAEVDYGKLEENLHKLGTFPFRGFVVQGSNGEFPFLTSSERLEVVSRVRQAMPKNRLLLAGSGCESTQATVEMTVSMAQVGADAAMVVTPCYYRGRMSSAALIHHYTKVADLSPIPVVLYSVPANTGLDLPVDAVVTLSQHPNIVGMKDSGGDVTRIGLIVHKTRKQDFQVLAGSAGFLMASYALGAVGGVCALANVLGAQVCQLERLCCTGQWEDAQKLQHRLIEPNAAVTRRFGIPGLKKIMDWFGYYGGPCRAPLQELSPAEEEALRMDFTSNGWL

purified protein = substrate: O=C(O)C(=O)CC(O)C(=O)O; assay: purified protein; assay type: biochemical, Homo sapiens; settings: racemic HOG, 100 mM TRIS pH 8.5, 37°C, aldol cleavage
[1] = molecular target: the molecule itself; assay: AUC; sedimentation equilibrium; His-tag free hHOGA at 0.43, 0.82, 1.25 mg/ml and a replicate at 0.45, 0.78, 1.14 mg/ml, two rotor speeds; 20 mM HEPES pH 7.5, 100 mM NaCl; fit to a dimer-tetramer model (HETEROANALYSIS, SEDPHAT); tetramer to dimers
[2] = molecular target: the molecule itself; assay: crystal structure; apoenzyme (2.5 A) and pyruvate-Schiff base complex (1.97 A), space group P6(4)22, one molecule in the asymmetric unit; the tetramer is generated by crystallographic symmetry

O=C(O)C(=O)CC(O)C(=O)O (racemic) [HOG]
phenylhydrazine assay of glyoxylate formation (bovine HOGA (bHOGA)): production of glyoxylate from HOG synthesized in-house

CC(=O)C(=O)O [pyruvate]
X-ray crystal structure, 1.97 Å (human HOGA (hHOGA)): clear continuous electron density for the imine Schiff base adduct between the ε-amino group of

B1: human HOGA (hHOGA) (Homo sapiens; Y140F) (protein)
chain: ASGEGKKVDIAGIYPPVTTPFTATAEVDYGKLEENLHKLGTFPFRGFVVQGSNGEFPFLTSSERLEVVSRVRQAMPKNRLLLAGSGCESTQATVEMTVSMAQVGADAAMVVTPCFYRGRMSSAALIHHYTKVADLSPIPVVLYSVPANTGLDLPVDAVVTLSQHPNIVGMKDSGGDVTRIGLIVHKTRKQDFQVLAGSAGFLMASYALGAVGGVCALANVLGAQVCQLERLCCTGQWEDAQKLQHRLIEPNAAVTRRFGIPGLKKIMDWFGYYGGPCRAPLQELSPAEEEALRMDFTSNGWL
notes: His-tag (WT, Y140F) cleavable by PreScission leaving GPH, 33,097 Da tag-free; S77, N78 and S198 mutants as MBP fusion, MBP cleaved; tetramer
Km (purified protein): 8 ± 1 µM
kcat (purified protein): 5.2 ± 0.1 s⁻¹
kcat/Km (purified protein): 650000 ± 81000 M⁻¹ s⁻¹

B2: human HOGA (hHOGA) (Homo sapiens; S77A) (protein)
chain: ASGEGKKVDIAGIYPPVTTPFTATAEVDYGKLEENLHKLGTFPFRGFVVQGANGEFPFLTSSERLEVVSRVRQAMPKNRLLLAGSGCESTQATVEMTVSMAQVGADAAMVVTPCYYRGRMSSAALIHHYTKVADLSPIPVVLYSVPANTGLDLPVDAVVTLSQHPNIVGMKDSGGDVTRIGLIVHKTRKQDFQVLAGSAGFLMASYALGAVGGVCALANVLGAQVCQLERLCCTGQWEDAQKLQHRLIEPNAAVTRRFGIPGLKKIMDWFGYYGGPCRAPLQELSPAEEEALRMDFTSNGWL
notes: as for B1
Km (purified protein): 84 ± 5 µM
kcat (purified protein): 2.5 ± 0.1 s⁻¹
kcat/Km (purified protein): 30000 ± 2000 M⁻¹ s⁻¹

B3: human HOGA (hHOGA) (Homo sapiens; S77V) (protein)
chain: ASGEGKKVDIAGIYPPVTTPFTATAEVDYGKLEENLHKLGTFPFRGFVVQGVNGEFPFLTSSERLEVVSRVRQAMPKNRLLLAGSGCESTQATVEMTVSMAQVGADAAMVVTPCYYRGRMSSAALIHHYTKVADLSPIPVVLYSVPANTGLDLPVDAVVTLSQHPNIVGMKDSGGDVTRIGLIVHKTRKQDFQVLAGSAGFLMASYALGAVGGVCALANVLGAQVCQLERLCCTGQWEDAQKLQHRLIEPNAAVTRRFGIPGLKKIMDWFGYYGGPCRAPLQELSPAEEEALRMDFTSNGWL
notes: as for B1
Km (purified protein): 82 ± 7 µM
kcat (purified protein): 1.2 ± 0.1 s⁻¹
kcat/Km (purified protein): 15000 ± 1000 M⁻¹ s⁻¹

B4: human HOGA (hHOGA) (Homo sapiens; S77T) (protein)
chain: ASGEGKKVDIAGIYPPVTTPFTATAEVDYGKLEENLHKLGTFPFRGFVVQGTNGEFPFLTSSERLEVVSRVRQAMPKNRLLLAGSGCESTQATVEMTVSMAQVGADAAMVVTPCYYRGRMSSAALIHHYTKVADLSPIPVVLYSVPANTGLDLPVDAVVTLSQHPNIVGMKDSGGDVTRIGLIVHKTRKQDFQVLAGSAGFLMASYALGAVGGVCALANVLGAQVCQLERLCCTGQWEDAQKLQHRLIEPNAAVTRRFGIPGLKKIMDWFGYYGGPCRAPLQELSPAEEEALRMDFTSNGWL
notes: as for B1
Km (purified protein): 58 ± 8 µM
kcat (purified protein): 0.8 ± 0.1 s⁻¹
kcat/Km (purified protein): 14000 ± 2000 M⁻¹ s⁻¹

B5: human HOGA (hHOGA) (Homo sapiens; S198A) (protein)
chain: ASGEGKKVDIAGIYPPVTTPFTATAEVDYGKLEENLHKLGTFPFRGFVVQGSNGEFPFLTSSERLEVVSRVRQAMPKNRLLLAGSGCESTQATVEMTVSMAQVGADAAMVVTPCYYRGRMSSAALIHHYTKVADLSPIPVVLYSVPANTGLDLPVDAVVTLSQHPNIVGMKDAGGDVTRIGLIVHKTRKQDFQVLAGSAGFLMASYALGAVGGVCALANVLGAQVCQLERLCCTGQWEDAQKLQHRLIEPNAAVTRRFGIPGLKKIMDWFGYYGGPCRAPLQELSPAEEEALRMDFTSNGWL
notes: as for B1
Km (purified protein): 44 ± 2 µM
kcat (purified protein): 2.4 ± 0.1 s⁻¹
kcat/Km (purified protein): 55000 ± 3000 M⁻¹ s⁻¹

B6: human HOGA (hHOGA) (Homo sapiens; S198T) (protein)
chain: ASGEGKKVDIAGIYPPVTTPFTATAEVDYGKLEENLHKLGTFPFRGFVVQGSNGEFPFLTSSERLEVVSRVRQAMPKNRLLLAGSGCESTQATVEMTVSMAQVGADAAMVVTPCYYRGRMSSAALIHHYTKVADLSPIPVVLYSVPANTGLDLPVDAVVTLSQHPNIVGMKDTGGDVTRIGLIVHKTRKQDFQVLAGSAGFLMASYALGAVGGVCALANVLGAQVCQLERLCCTGQWEDAQKLQHRLIEPNAAVTRRFGIPGLKKIMDWFGYYGGPCRAPLQELSPAEEEALRMDFTSNGWL
notes: as for B1
Km (purified protein): 77 ± 5 µM
kcat (purified protein): 7.8 ± 0.1 s⁻¹
kcat/Km (purified protein): 101000 ± 7000 M⁻¹ s⁻¹

B7: human HOGA (hHOGA) (Homo sapiens) (protein)
chain: ASGEGKKVDIAGIYPPVTTPFTATAEVDYGKLEENLHKLGTFPFRGFVVQGSNGEFPFLTSSERLEVVSRVRQAMPKNRLLLAGSGCESTQATVEMTVSMAQVGADAAMVVTPCYYRGRMSSAALIHHYTKVADLSPIPVVLYSVPANTGLDLPVDAVVTLSQHPNIVGMKDSGGDVTRIGLIVHKTRKQDFQVLAGSAGFLMASYALGAVGGVCALANVLGAQVCQLERLCCTGQWEDAQKLQHRLIEPNAAVTRRFGIPGLKKIMDWFGYYGGPCRAPLQELSPAEEEALRMDFTSNGWL
notes: as for B1
Km (purified protein): 11 ± 1 µM
kcat (purified protein): 6.1 ± 0.1 s⁻¹
kcat/Km (purified protein): 555000 ± 50000 M⁻¹ s⁻¹

B8: human HOGA (hHOGA) (Homo sapiens; N78A) (protein)
chain: ASGEGKKVDIAGIYPPVTTPFTATAEVDYGKLEENLHKLGTFPFRGFVVQGSAGEFPFLTSSERLEVVSRVRQAMPKNRLLLAGSGCESTQATVEMTVSMAQVGADAAMVVTPCYYRGRMSSAALIHHYTKVADLSPIPVVLYSVPANTGLDLPVDAVVTLSQHPNIVGMKDSGGDVTRIGLIVHKTRKQDFQVLAGSAGFLMASYALGAVGGVCALANVLGAQVCQLERLCCTGQWEDAQKLQHRLIEPNAAVTRRFGIPGLKKIMDWFGYYGGPCRAPLQELSPAEEEALRMDFTSNGWL
notes: as for B1
Km (purified protein): 66 ± 4 µM
kcat (purified protein): 7.6 ± 0.1 s⁻¹
kcat/Km (purified protein): 115000 ± 7000 M⁻¹ s⁻¹

B9: human HOGA (hHOGA) (Homo sapiens; N78T) (protein)
chain: ASGEGKKVDIAGIYPPVTTPFTATAEVDYGKLEENLHKLGTFPFRGFVVQGSTGEFPFLTSSERLEVVSRVRQAMPKNRLLLAGSGCESTQATVEMTVSMAQVGADAAMVVTPCYYRGRMSSAALIHHYTKVADLSPIPVVLYSVPANTGLDLPVDAVVTLSQHPNIVGMKDSGGDVTRIGLIVHKTRKQDFQVLAGSAGFLMASYALGAVGGVCALANVLGAQVCQLERLCCTGQWEDAQKLQHRLIEPNAAVTRRFGIPGLKKIMDWFGYYGGPCRAPLQELSPAEEEALRMDFTSNGWL
notes: as for B1
Km (purified protein): 16 ± 1 µM
kcat (purified protein): 4 ± 0.1 s⁻¹
kcat/Km (purified protein): 250000 ± 16000 M⁻¹ s⁻¹

B10: human HOGA (hHOGA) (Homo sapiens; N78Q) (protein)
chain: ASGEGKKVDIAGIYPPVTTPFTATAEVDYGKLEENLHKLGTFPFRGFVVQGSQGEFPFLTSSERLEVVSRVRQAMPKNRLLLAGSGCESTQATVEMTVSMAQVGADAAMVVTPCYYRGRMSSAALIHHYTKVADLSPIPVVLYSVPANTGLDLPVDAVVTLSQHPNIVGMKDSGGDVTRIGLIVHKTRKQDFQVLAGSAGFLMASYALGAVGGVCALANVLGAQVCQLERLCCTGQWEDAQKLQHRLIEPNAAVTRRFGIPGLKKIMDWFGYYGGPCRAPLQELSPAEEEALRMDFTSNGWL
notes: as for B1
Km (purified protein): 281 ± 14 µM
kcat (purified protein): 6.2 ± 0.1 s⁻¹
kcat/Km (purified protein): 22000 ± 1000 M⁻¹ s⁻¹

B11: human 4-hydroxy-2-oxoglutarate aldolase (hHOGA), His-tag free (enzyme)
chain: GPHASGEGKKVDIAGIYPPVTTPFTATAEVDYGKLEENLHKLGTFPFRGFVVQGSNGEFPFLTSSERLEVVSRVRQAMPKNRLLLAGSGCESTQATVEMTVSMAQVGADAAMVVTPCYYRGRMSSAALIHHYTKVADLSPIPVVLYSVPANTGLDLPVDAVVTLSQHPNIVGMKDSGGDVTRIGLIVHKTRKQDFQVLAGSAGFLMASYALGAVGGVCALANVLGAQVCQLERLCCTGQWEDAQKLQHRLIEPNAAVTRRFGIPGLKKIMDWFGYYGGPCRAPLQELSPAEEEALRMDFTSNGWL
notes: three additional N-terminal residues left from the PreScission Protease recognition site after removal of the His-tag; the protein starts at residue 26; 302 residues in the mature form; Tetramer (dimer of dimers) in the crystal; dimer-tetramer equilibrium in solution; also called human HOGA; HOGA1; source: E. coli BL21*(DE3), purified (Ni-NTA, Q-Sepharose HP, Superdex 200); His-tag removed with …
Kd [1]: ~60 µM and 58 to 63 µM
stoichiometry N [2]: 4
